How the values were obtained:
Settings in all cases: both partners purified
[1] = biological target: T1, full-length rabbit cytochrome b5 (rabbit, UniProt P00169 1-134); test: stopped-flow absorbance kinetics; cytb5 in nanodiscs; 25 °C, anaerobic; pre-reduced cytb5 mixed with ferric cyt c, final 6 uM cytb5 and 6.6 uM cyt c; micro-rates from numerical fit of the scheme binding (k1, k2) then electron transfer (k3)
T1 construct: Uniformly 15N-labelled where it is the observed protein in NMR, unlabelled otherwise; Ferric in NMR; reduced with dithionite (ferrous) for stopped flow; also called cytb 5; cytb5; source: E. coli C41, pLW01 plasmid, purified

[2] = biological target: T1, full-length rabbit cytochrome b5; test: stopped-flow absorbance kinetics; cytb5 in DMPC/DHPC bicelles; 25 °C, anaerobic; pre-reduced cytb5 mixed with ferric cyt c, final 6 uM cytb5 and 6.6 uM cyt c; micro-rates from numerical fit of the scheme binding (k1, k2) then electron transfer (k3)
[3] = biological target: T1, full-length rabbit cytochrome b5; test: stopped-flow absorbance kinetics; lipid-free cytb5; 25 °C, anaerobic; pre-reduced cytb5 mixed with ferric cyt c, final 6 uM cytb5 and 6.6 uM cyt c; micro-rates from numerical fit of the scheme binding (k1, k2) then electron transfer (k3); k2 fixed to zero

T1 sequence (P00169 whole entry): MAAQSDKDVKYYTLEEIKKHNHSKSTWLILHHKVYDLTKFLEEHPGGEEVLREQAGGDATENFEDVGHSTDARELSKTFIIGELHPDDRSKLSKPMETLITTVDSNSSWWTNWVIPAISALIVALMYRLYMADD

- koff [1]: 54.54 ± 0.35 s⁻¹
- koff [2]: 46.2 ± 0.86 s⁻¹
- koff [3]: ~0 s⁻¹
B1: equine cytochrome c (natural protein)
chain: not shown
notes: Unlabelled in the titrations into 15N-cytb5, in SEC/DLS and in stopped flow (ferric); uniformly 15N-labelled where it is the observed protein in NMR; also called cyt c; horse cyt c; source: obtained through a collaborator, prepared and purified as described previously; 15N-labeled form expressed and purified as reported in the literature

Source: article PMC5552742, “Kinetic and Structural Characterization of the Effects of Membrane on the Complex of Cytochrome b5 and Cytochrome c” (Scientific Reports, 2017)
